The results in this text go back to article PMC6326814.

Assay [1] addresses BbvCI R2 subunit, wild type (Geobacillus brevis). Description: crystal structure; crystal form 1, grown from the purified enzyme with dsDNA oligos against 0.8 M ammonium sulfate, 100 mM sodium acetate pH 4.5, 2 mM CaCl2; only R2 in the crystal.
Assay [2] has the same target. Description: SEC; purified enzyme at pH 7.5 (pH of the storage buffer); sample with 1:1 subunits by Supplementary Figure S1. (In gel filtration, larger molecules generally elute earlier.)

As to BbvCI R2 subunit, wild type (enzyme), in assay [1], the stoichiometry N (commonly the number of molecules, sites or subunits per partner or assembly) was 2.

Take BbvCI R1 subunit, wild type (enzyme): in assay [2], the stoichiometry N is 1 R1:R2.
